Assay results reported in doi:10.1101/2023.12.21.572875, “Structure of the human systemic RNAi defective transmembrane protein 1 (hSIDT1) reveals the conformational flexibility of its lipid binding domain” (bioRxiv, 2024).

Target: the molecule itself
Assay: cryo-EM structure; single-particle cryo-EM of purified hSIDT1-GFP at 1 mg/ml in 0.5% digitonin, 25 mM Tris-HCl pH 7.5, 200 mM NaCl, with 100 uM fluorinated octyl-maltoside; no cholesterol or analogues; blotted at 18°C; C2 symmetry imposed

B1: human systemic RNAi-defective transmembrane family member 1 (hSIDT1), full length, C-terminal GFP-Strep-tag-II fusion (natural protein, UniProt Q9NXL6 20-827, looked up)
chain: ASPGHPAKSPRQPPAPRRDPFDAARGADFDHVYSGVVNLSTENIYSFNYTSQPDQVTAVRVYVNSSSENLNYPVLVVVRQQKEVLSWQVPLLFQGLYQRSYNYQEVSRTLCPSEATNETGPLQQLIFVDVASMAPLGAQYKLLVTKLKHFQLRTNVAFHFTASPSQPQYFLYKFPKDVDSVIIKVVSEMAYPCSVVSVQNIMCPVYDLDHNVEFNGVYQSMTKKAAITLQKKDFPGEQFFVVFVIKPEDYACGGSFFIQEKENQTWNLQRKKNLEVTIVPSIKESVYVKSSLFSVFIFLSFYLGCLLVGFVHYLRFQRKSIDGSFGSNDGSGNMVASHPIAASTPEGSNYGTIDESSSSPGRQMSSSDGGPPGQSDTDSSVEESDFDTMPDIESDKNIIRTKMFLYLSDLSRKDRRIVSKKYKIYFWNIITIAVFYALPVIQLVITYQTVVNVTGNQDICYYNFLCAHPLGVLSAFNNILSNLGHVLLGFLFLLIVLRRDILHRRALEAKDIFAVEYGIPKHFGLFYAMGIALMMEGVLSACYHVCPNYSNFQFDTSFMYMIAGLCMLKLYQTRHPDINASAYSAYASFAVVIMVTVLGVVFGKNDVWFWVIFSAIHVLASLALSTQIYYMGRFKIDLGIFRRAAMVFYTDCIQQCSRPLYMDRMVLLVVGNLVNWSFALFGLIYRPRDFASYMLGIFICNLLLYLAFYIIMKLRSSEKVLPVPLFCIVATAVMWAAALYFFFQNLSSWEGTPAESREKNRECILLDFFDDHDIWHFLSATALFFSFLVLLTLDDDLDVVRRDQIPVF
modifications: lacks complex N-glycosylation; density for N-acetylglucosamine at the predicted N-glycosylation sites N57, N67, N83, N136, N282 (not modelled)
notes: human SIDT1 (systemic RNAi-defective transmembrane family member 1), full length, codon-optimized synthetic gene (GenScript); UniProt Q9NXL6 printed for the AlphaFold model used in model building; Homodimer with C2 symmetry; Not modelled in the structure: the first 40 residues, cytosolic loops CL1 and CL4, Q278-N286 and the C-terminal GFP; The native signal peptide may be removed in the mature …
stoichiometry N: 2
